What was measured:
Assay in all cases: Kinase Profiling Assay
Type in all cases: biochemical
Settings in all cases: 100 μM
[1] = biological target: Flt3 (h) (Homo sapiens, UniProt P36888)
Outline: (§1)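 In this 266-kinase specificity panel, every measurement was duplicated. Transfer of labeled phosphate from ATP to a cationic substrate was quantified after the substrate adhered to an anionic filter membrane and was scintillation-counted, then related to a full-activity control.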

[2] = biological target: T1, ULK2 (h) (Homo sapiens, UniProt Q8IYT8)
T1 sequence (Q8IYT8 1-1036): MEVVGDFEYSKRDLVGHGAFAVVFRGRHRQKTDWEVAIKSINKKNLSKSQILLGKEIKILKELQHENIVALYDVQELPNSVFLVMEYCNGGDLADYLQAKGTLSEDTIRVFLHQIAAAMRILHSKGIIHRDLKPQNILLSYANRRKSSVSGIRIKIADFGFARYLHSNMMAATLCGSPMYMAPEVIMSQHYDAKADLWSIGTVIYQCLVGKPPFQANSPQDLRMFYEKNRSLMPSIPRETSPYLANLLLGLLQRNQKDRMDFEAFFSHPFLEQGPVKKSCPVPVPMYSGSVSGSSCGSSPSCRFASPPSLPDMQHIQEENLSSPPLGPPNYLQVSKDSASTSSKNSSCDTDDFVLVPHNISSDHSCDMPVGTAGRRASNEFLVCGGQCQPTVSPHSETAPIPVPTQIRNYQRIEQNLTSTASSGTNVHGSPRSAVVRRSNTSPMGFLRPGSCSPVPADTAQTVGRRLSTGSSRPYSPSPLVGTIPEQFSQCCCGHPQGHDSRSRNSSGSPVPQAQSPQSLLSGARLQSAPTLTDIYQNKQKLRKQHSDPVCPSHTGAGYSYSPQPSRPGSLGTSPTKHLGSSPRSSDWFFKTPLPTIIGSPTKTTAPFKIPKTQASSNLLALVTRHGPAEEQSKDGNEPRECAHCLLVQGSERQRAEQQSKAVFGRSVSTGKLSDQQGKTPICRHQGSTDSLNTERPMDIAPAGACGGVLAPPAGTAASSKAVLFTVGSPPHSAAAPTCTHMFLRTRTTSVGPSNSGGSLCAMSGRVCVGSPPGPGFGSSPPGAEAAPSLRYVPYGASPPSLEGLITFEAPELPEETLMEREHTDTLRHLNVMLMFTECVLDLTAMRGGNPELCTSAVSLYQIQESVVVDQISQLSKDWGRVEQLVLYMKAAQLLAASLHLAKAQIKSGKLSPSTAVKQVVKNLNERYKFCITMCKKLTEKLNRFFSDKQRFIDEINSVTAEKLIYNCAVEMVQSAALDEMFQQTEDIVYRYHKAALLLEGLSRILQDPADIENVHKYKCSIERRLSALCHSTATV
Outline: as §1

[3] = biological target: LOK (h) (Homo sapiens, UniProt O94804)
Outline: as §1

[4] = biological target: T2, TAO1 (h) (Homo sapiens, UniProt Q7L7X3)
T2 sequence (Q7L7X3 1-1001): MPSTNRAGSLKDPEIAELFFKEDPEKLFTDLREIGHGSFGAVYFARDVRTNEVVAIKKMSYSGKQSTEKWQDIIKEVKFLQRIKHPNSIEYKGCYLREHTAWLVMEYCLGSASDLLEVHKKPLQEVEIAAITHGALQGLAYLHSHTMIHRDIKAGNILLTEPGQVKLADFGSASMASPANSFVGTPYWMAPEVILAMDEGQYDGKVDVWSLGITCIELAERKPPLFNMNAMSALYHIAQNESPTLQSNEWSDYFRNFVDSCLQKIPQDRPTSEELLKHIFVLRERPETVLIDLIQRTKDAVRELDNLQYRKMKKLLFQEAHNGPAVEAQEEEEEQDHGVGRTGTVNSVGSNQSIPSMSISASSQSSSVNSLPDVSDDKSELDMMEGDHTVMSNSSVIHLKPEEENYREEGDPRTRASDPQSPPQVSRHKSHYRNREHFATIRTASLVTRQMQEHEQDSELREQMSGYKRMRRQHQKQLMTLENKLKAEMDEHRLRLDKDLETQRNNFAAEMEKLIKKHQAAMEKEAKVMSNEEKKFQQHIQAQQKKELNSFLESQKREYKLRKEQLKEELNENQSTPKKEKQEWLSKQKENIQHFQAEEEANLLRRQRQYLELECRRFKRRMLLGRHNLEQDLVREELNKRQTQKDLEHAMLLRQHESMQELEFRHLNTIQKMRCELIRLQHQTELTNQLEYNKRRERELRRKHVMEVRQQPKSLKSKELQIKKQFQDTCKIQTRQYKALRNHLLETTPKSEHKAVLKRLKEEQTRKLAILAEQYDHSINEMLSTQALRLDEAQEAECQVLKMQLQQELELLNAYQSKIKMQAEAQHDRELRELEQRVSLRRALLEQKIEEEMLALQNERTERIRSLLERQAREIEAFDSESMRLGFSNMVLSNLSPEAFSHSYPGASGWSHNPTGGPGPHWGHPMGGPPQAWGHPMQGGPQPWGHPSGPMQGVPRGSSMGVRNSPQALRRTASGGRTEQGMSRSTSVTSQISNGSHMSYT
Outline: as §1

[5] = biological target: Ron (h) (Homo sapiens, UniProt Q04912)
Outline: as §1

[6] = biological target: T3, CDK9/cyclin T1 (h) (Homo sapiens, UniProt P50750)
T3 construct: purchased Millipore
Outline: as §1

[7] = biological target: T4, p70S6K (h) (Homo sapiens, UniProt P23443)
T4 construct: purchased Millipore
Outline: as §1

[8] = biological target: Fer (h) (Homo sapiens, UniProt P16591)
Outline: as §1

[9] = biological target: Met(D1246H) (h) (Homo sapiens, UniProt P08581, D1228H)
Outline: as §1

[10] = biological target: PKCη (h) (Homo sapiens, UniProt P24723)
Outline: as §1

T3 sequence (P50750 whole entry): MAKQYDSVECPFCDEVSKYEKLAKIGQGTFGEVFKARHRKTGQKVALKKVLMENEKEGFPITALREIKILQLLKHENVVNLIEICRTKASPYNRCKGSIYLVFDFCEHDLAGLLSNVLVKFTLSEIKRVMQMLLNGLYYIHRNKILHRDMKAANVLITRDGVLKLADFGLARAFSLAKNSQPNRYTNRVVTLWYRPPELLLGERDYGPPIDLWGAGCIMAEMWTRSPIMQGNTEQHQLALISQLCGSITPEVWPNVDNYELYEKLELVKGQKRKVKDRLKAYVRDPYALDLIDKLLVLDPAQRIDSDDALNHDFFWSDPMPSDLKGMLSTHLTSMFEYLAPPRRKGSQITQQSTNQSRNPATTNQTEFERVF
T3 sequence (O60563 whole entry partner): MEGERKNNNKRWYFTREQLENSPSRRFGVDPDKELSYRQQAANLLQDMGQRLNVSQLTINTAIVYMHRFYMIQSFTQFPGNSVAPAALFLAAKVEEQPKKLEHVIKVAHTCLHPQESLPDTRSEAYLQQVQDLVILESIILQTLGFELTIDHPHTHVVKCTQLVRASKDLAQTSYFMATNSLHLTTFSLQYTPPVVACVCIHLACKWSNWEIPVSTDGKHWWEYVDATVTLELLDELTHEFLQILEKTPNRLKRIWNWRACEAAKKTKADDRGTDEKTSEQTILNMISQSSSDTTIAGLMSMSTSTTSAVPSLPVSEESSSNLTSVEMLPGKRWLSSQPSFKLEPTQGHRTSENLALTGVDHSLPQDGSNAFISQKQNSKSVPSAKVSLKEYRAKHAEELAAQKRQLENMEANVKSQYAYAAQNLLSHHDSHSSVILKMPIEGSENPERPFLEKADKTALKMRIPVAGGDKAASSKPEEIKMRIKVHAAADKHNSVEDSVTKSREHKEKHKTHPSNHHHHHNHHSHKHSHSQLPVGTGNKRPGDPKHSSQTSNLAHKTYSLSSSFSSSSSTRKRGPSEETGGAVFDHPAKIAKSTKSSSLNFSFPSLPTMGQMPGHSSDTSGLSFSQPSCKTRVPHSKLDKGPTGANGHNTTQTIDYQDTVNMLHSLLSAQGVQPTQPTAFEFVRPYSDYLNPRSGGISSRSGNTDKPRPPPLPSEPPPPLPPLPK
Chain of Fer (h) (P16591 whole entry): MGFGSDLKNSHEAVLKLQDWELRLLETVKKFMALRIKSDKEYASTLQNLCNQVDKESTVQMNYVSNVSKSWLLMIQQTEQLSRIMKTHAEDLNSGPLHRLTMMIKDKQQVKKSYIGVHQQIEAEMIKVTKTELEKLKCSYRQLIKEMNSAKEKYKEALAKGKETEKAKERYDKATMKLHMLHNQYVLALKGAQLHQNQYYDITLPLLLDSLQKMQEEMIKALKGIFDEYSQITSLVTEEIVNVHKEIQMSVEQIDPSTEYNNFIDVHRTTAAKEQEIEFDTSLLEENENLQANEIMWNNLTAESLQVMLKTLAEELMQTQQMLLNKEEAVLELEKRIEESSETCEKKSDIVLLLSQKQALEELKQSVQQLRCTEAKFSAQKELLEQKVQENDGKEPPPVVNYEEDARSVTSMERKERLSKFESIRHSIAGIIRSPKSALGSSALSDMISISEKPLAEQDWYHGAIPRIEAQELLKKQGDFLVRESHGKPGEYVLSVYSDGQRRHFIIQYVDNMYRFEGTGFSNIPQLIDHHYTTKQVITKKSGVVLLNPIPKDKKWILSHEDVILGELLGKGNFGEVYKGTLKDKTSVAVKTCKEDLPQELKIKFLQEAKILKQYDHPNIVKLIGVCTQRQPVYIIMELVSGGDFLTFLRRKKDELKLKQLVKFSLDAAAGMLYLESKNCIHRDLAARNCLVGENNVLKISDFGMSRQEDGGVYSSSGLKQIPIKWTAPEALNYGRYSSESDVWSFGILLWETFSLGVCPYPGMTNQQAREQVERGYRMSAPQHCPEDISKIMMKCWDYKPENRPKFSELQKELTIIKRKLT
Chain of LOK (h) (O94804 whole entry): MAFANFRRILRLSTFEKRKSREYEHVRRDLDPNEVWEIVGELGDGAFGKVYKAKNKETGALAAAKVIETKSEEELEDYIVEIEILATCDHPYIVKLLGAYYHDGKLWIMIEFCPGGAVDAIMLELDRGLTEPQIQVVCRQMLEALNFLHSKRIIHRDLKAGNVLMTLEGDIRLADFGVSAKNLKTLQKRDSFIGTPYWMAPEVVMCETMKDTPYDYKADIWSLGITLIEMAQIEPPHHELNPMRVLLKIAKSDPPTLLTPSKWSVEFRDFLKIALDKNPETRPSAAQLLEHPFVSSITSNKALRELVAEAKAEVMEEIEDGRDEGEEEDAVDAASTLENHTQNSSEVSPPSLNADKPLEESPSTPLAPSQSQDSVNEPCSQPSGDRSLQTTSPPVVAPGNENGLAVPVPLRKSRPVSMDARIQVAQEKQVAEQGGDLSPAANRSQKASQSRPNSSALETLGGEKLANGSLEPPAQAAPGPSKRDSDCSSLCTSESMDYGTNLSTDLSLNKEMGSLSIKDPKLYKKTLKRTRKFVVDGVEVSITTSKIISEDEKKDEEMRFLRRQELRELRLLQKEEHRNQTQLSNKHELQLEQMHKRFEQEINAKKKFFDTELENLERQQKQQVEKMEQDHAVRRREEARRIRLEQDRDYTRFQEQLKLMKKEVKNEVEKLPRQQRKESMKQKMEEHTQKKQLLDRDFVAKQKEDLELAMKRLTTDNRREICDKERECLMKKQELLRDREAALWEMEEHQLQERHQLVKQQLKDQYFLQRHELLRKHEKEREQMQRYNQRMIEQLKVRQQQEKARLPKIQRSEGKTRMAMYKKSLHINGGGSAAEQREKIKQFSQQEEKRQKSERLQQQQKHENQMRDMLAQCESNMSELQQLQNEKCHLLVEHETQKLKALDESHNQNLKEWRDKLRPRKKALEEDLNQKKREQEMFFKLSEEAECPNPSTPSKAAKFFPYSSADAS
Chain of PKCη (h) (P24723 whole entry): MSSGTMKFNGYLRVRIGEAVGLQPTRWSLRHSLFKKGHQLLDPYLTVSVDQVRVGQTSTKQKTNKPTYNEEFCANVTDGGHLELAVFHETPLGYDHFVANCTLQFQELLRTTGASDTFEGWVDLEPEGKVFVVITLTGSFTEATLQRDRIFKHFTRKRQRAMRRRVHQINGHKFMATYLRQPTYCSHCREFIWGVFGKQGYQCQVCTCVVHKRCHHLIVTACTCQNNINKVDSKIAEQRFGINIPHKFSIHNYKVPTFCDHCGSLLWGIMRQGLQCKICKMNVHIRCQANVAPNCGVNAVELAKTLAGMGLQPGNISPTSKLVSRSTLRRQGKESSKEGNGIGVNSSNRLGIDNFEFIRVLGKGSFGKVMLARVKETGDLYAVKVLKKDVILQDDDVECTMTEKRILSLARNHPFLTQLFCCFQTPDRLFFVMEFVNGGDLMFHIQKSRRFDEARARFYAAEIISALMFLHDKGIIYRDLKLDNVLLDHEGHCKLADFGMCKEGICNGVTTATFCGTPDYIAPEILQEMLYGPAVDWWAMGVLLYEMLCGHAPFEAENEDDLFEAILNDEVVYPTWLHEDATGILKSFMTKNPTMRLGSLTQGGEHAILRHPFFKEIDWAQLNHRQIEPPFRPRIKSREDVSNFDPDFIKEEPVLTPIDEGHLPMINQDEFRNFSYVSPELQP
T4 sequence (P23443 whole entry): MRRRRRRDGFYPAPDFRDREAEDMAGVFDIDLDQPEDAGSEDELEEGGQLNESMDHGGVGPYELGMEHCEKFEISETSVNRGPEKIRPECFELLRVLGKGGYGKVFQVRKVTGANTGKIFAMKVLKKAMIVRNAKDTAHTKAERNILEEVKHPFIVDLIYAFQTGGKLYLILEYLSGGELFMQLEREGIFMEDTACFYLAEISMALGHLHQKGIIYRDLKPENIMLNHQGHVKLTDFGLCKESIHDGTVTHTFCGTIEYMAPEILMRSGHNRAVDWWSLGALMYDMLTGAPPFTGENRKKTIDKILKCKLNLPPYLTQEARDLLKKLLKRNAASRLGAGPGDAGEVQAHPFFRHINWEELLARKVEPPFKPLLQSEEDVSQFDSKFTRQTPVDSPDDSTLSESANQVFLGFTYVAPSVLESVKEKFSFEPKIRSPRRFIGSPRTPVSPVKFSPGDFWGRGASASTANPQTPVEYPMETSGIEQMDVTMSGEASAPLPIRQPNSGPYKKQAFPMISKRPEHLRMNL

| Sequence | % activity [1] | % activity [2] | % activity [3] | % activity [4] | % activity [5] | % activity [6] | % activity [7] | % activity [8] | % activity [9] | % activity [10] |
| --- | --- | --- | --- | --- | --- | --- | --- | --- | --- | --- |
| FAKLAARLYRKALARQLGVAA [MMI-0300] | 84% | 122% | 37% | 82% | 93% | 91% | 35% | 130% | 125% | – |
| HRRIKAWLKKIKALARQLGVAA (Mammalian) [MMI-0500] | 17% | 124% | 7% | 24% | 46% | 6% | 3% | 196% | 150% | 45% |
| KAFAKLAARLYRKALARQLGVAA [MMI-0400] | 18% | 131% | 18% | 73% | 79% | 235% | 33% | 108% | 68% | 98% |
| YARAAARQARAKALNRQLGVA (Mammalian) [MMI-0200] | 99% | 132% | 67% | – | 120% | – | 84% | 101% | 139% | 101% |
